Measurements from article PMC6509256.

How the values were obtained:
[1] = biological target: PcVps75ΔC (residues 1-223), crystallised as a dimer (Pneumocystis carinii); test: crystal structure
[2] = biological target: PcVps75ΔCM-SeMet (residues 1-223, E56 and N127 mutated to methionine, selenomethionine-labeled), cry (Pneumocystis carinii); test: crystal structure

Substance | stoichiometry N [1] | stoichiometry N [2]
PcVps75ΔC (residues 1-223), crystallised as a dimer (domain or fragment) | 2 | 
PcVps75ΔCM-SeMet (residues 1-223, E56 and N127 mutated to methionine, selenomethionine-labeled), cry (domain or fragment) |  | 4
